Experimental data from US20080194019.

Columns and labels:
[1] = tested on: MBP-AMPKa (1-312) bacterial fusion protein
FLAG-tagged tuberin = FLAG-tagged tuberin (UniProt P49815)
FLAG-tagged tuberin, sequence (P49815 whole entry): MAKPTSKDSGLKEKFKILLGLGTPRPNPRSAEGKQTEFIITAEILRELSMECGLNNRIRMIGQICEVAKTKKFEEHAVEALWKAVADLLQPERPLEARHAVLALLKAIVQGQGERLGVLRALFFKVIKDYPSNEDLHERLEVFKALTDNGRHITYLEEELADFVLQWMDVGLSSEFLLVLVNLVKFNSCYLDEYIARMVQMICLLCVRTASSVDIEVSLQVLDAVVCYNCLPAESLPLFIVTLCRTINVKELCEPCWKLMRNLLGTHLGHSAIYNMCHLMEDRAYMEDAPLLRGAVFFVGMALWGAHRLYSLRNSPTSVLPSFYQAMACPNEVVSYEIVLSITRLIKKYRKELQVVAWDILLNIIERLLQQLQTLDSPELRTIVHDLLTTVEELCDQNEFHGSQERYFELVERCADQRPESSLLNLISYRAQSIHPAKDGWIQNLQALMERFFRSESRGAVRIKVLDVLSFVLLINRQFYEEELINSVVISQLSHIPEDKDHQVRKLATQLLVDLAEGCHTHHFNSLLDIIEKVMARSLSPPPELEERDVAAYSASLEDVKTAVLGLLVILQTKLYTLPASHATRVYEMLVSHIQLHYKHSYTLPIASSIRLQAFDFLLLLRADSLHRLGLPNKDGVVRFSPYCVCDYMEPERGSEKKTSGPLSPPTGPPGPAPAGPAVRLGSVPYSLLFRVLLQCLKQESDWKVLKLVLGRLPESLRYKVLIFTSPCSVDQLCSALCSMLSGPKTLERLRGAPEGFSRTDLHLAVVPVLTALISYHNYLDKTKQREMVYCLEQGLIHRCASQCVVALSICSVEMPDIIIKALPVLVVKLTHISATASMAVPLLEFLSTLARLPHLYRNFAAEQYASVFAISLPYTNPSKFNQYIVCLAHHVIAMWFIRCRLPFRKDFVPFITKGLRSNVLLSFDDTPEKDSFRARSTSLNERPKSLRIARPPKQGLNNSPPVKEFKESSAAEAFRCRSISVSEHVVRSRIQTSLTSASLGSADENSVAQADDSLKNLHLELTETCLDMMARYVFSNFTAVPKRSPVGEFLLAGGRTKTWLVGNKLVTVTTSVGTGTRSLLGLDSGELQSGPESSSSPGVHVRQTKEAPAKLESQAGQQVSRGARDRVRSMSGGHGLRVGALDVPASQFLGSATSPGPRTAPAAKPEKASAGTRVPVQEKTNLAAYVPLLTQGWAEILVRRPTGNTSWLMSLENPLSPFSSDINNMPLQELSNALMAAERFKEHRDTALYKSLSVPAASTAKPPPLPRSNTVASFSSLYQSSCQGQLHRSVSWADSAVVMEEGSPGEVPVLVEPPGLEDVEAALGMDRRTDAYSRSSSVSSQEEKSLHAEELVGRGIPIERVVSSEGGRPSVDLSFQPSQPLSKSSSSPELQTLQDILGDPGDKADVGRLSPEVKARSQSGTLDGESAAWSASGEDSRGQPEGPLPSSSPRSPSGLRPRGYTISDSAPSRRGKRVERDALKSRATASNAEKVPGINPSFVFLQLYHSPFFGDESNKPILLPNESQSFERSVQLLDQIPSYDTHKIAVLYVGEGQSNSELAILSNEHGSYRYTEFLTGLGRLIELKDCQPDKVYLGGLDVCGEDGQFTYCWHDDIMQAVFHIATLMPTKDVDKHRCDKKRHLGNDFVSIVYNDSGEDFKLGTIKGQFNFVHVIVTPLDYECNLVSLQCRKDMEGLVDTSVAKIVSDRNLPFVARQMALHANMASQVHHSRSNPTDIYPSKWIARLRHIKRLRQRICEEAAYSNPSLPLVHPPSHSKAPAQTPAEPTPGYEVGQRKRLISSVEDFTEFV

## Kinase-inactive LKB1 (K78I) coexpressed with STRAD, Flag immunoprecipitate
[1]
  AMPK kinase activity towards the SAMS peptide after in vitro kinase reaction with LKB1: Kinase-inactive LKB1 alone or coexpressed with STRAD was unable to activate AMPK

## MBP-AMPKa (1-312) bacterial fusion protein
FLAG-tagged tuberin
  in vitro phosphorylation of FLAG-tagged tuberin by recombinant AMPK pre-activated with wild-type LKB1: AMPK activated by wild-type LKB1 directly phosphorylated tuberin in vitro
SAMS peptide
  phosphorylation of the SAMS peptide by unphosphorylated MBP-AMPK: bacterial MBP-AMPK is inactive towards the peptide

## Active recombinant Akt (Upstate Biotechnology)
FLAG-tagged tuberin
  in vitro phosphorylation of tuberin; mobility shift on low percentage SDS-PAGE: This mobility shift in tuberin was not observed when tuberin was phosphorylated by active recombinant Akt, even at levels of tuberin phosphorylation comparable to those induced by AMPK

## Active recombinant AMPK (Upstate Biotechnology)
FLAG-tagged tuberin
  in vitro phosphorylation of tuberin; mobility shift on low percentage SDS-PAGE: when tuberin was stoichiometrically phosphorylated by AMPK, it underwent a mobility shift
